Experimental data reported in patent US20030224463A1 (Dana-Farber, published 2003).

Target: T1, human MLH1 protein (hMLH1) (human, UniProt P40692 1-756, limits assumed)
T1 construct: Translated in vitro for the MBP-hPMS1 column assay
T1 sequence: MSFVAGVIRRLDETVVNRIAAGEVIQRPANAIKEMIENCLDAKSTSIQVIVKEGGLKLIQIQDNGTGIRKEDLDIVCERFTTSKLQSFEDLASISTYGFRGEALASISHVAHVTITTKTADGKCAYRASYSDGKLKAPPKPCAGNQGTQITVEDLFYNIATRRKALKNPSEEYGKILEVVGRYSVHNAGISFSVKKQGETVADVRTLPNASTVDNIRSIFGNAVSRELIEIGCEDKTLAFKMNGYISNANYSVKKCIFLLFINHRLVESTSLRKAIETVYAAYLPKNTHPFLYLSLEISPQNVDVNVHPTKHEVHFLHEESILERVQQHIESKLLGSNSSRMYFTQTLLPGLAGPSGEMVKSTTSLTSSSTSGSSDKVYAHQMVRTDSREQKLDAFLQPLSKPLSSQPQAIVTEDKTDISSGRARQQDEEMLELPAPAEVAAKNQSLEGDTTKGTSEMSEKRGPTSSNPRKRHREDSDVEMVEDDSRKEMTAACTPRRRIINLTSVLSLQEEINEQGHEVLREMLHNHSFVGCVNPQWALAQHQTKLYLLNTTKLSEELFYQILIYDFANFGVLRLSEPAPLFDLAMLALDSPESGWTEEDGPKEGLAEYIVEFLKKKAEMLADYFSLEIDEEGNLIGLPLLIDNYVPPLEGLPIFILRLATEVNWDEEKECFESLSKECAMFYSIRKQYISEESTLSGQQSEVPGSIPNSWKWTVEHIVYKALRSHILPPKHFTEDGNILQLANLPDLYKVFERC
Test: yeast two-hybrid system

B1: human PMS1 protein (hPMS1) (other)
chain: MERAESSSTEPAKAIKPIDRKSVHQICSGQVVLSLSTAVKELVENSLDAGATNIDLKLKDYGVDLIEVSDNGCGVEEENFEGLTLKHHTSKIQEFADLTQVETFGFRGEALSSLCALSDVTISTCHASAKVGTRLMFDHNGKIIQKTPYPRPRGTTVSVQQLFSTLPVRHKEFQRNIKKEYAKMVQVLHAYCIISAGIRVSCTNQLGQGKRQPVVCIGGSPSIKENIGSVFGQKQLQSLIPFVQLPPSDSVCEEYGLSCSDALHNLFYISGFISQCTHGVGRSSTDRQFFFINRRPCDPAKVCRLVNEVYHMYNRHQYPFVVLNISVDSECVDINVTPDKRQILLQEEKLLLAVLKTSLIGMFDSDVNKLNVSQQPLLDVEGNLIKMHAADLEKPMVEHQDQSPSLRIGEEKKDVSISRLREAFSLRHTTENKPHSPKTPEPRRSPLGQKRGMLSSSTSGAISDKGVLRSQKEAVSSSHGPSDPTDRAEVEKDSGHGSTSVDSEGFSIPDTGSHCSSEYAASSPGDRGSQEHVDSQEKAPETDDSFSDVDCHSNQEDTGCKFRVLPQPINLATPNTKRFKKEEILSSSDICQKLVNTQDMSASQVDVAVKINKKVVPLDFSMSSLAKRIKQLHHEAQQSEGEQNYRKFRAKICPGENQAAEDELRKEISKTMFAEMEIIGQFNLGFIITKLNEDIFIVDQHATDEKYNFEMLQQHTVLQGQRLIAPQTLNLTAVNEAVLIENLEIFRKNGFDFVIDENAPVTERAKLISLPTSKNWTFGPQDVDELIFMLSDSPGVMCRPSRVKQMFASRACRKSVMIGTALNTSEMKKLITHMGEMGHPWNCPHGRPTMRHIANLGVISQN
notes: Synthesized in vitro for the MBP column assay
binding result: binds
